Earlier results as cited in article PMC5453503.
Several values for one entry are separate records, joined by “and”; a condition that tells them apart may be missing. Equal entries are not always repeated.

Target: VEGFR2 (Homo sapiens) (UniProt P35968)
Chain of UniProt P35968 (P35968 20-1356): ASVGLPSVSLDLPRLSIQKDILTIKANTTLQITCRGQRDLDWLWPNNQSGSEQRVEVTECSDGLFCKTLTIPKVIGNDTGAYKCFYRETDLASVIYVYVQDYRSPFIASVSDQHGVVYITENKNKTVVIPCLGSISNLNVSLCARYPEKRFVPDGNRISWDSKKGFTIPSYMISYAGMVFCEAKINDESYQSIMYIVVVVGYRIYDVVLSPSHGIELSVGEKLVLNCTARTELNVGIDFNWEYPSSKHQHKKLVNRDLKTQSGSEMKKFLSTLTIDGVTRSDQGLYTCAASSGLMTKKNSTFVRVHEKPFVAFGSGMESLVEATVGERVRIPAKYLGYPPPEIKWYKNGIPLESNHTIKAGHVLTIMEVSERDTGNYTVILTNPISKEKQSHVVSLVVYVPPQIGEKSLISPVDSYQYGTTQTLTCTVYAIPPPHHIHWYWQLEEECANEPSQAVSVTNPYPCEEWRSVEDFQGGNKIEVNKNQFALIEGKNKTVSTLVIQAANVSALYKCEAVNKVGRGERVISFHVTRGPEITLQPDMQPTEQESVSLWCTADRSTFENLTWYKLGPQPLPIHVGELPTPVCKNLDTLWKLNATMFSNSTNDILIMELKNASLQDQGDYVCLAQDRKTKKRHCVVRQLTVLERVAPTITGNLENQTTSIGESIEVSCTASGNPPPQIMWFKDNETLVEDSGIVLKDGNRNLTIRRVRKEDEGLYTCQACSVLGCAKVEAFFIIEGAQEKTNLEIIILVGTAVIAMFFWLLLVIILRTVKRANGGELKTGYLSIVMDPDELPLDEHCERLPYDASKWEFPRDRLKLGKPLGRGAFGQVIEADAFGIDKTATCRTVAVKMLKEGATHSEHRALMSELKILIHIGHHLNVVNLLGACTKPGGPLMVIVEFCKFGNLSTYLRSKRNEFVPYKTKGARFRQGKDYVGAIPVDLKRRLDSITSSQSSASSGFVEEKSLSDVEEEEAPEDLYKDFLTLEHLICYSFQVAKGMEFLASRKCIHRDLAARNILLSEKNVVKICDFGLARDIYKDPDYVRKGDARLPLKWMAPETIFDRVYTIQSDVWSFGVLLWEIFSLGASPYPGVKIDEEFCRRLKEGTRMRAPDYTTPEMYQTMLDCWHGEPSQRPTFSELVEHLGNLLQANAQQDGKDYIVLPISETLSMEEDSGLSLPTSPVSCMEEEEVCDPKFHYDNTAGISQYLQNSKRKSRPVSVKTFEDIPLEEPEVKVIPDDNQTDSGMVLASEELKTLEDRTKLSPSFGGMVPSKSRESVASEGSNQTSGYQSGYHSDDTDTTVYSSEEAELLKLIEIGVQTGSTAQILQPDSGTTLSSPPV

For VEGF165a (from UniProt P15692), the Kd is given as 0.41 nM and 0.76 nM.
